This passage reports percent decrease of the binding signal against wild-type RBD results from paper PMC10986514.

For the assay, the target named is SARS-CoV-2 RBD single mutant E484K (SARS-CoV-2) (UniProt P0DTC2). Kind of assay: peptide or protein array.
As for “Tri-TMH multimodular nanobody (Ty1, MR17-K99Y and H11-H4 modules) (VHH)”, the percent decrease of the binding signal against wild-type RBD amounted to 60%.
The result for “Tri-TMV multimodular nanobody (Ty1, MR17-K99Y and VHH V modules)” reads 40%; that for “Tri-Ty1 multimodular nanobody (three Ty1 modules) (VHH)”, 96%.
